The record followed here is US20210324066A1.

Assay [1] deals with LIGHT standard recombinant antigen (UniProt O43557). In words: Simoa sandwich immunoassay, Enzo ALX-804-841-C100 capture with ProSci RF16062 detection, free LIGHT in diluent; uninhibited signal in the inhibition formula.
The target of assay [2] is native free LIGHT (TNFSF14) in serum and plasma samples (UniProt O43557). In words: antibody competition: serum and plasma samples incubated with 50 µg/mL free capture antibody for 35 minutes before the Simoa free LIGHT assay; treated against untreated sample concentration.
In assay [3] the target is LIGHT standard recombinant antigen (UniProt O43557). Kind of assay: Simoa sandwich immunoassay, Enzo ALX-804-841-C100 capture with ProSci RF16062 detection, free LIGHT in diluent; signal inhibited by DcR3 as competitor.

Enzo ALX-804-841-C100 (antibody): the figures for the MFI in assay [1] and in assay [3] were 9940 MFI and 361 MFI, respectively. For the same substance, the % Recovery in assay [2] turned out to be 0%.
